Earlier results on 1 molecule are cited in US5747454A, “Chromogranin peptides” (Albert Einstein College of Medicine of Yeshiva University, priority 1995, dated 1998).

The test system of this series is primary cultures of parathyroid cells.

B1: Chromogranin A: large, acidic protein found in the secretory granules of endocrine and neuroendocrine tissues including the parathyroid (protein, UniProt P10645 19-457, looked up)
Chromogranin-A: LPVNSPMNKGDTEVMKCIVEVISDTLSKPSPMPVSQECFETLRGDERILSILRHQNLLKELQDLALQGAKERAHQQKKHSGFEDELSEVLENQSSQAELKEAVEEPSSKDVMEKREDSKEAEKSGEATDGARPQALPEPMQESKAEGNNQAPGEEEEEEEEATNTHPPASLPSQKYPGPQAEGDSEGLSQGLVDREKGLSAEPGWQAKREEEEEEEEEAEAGEEAVPEEEGPTVVLNPHPSLGYKEIRKGESRSEALAVDGAGKPGAEEAQDPEGKGEQEHSQQKEEEEEMAVVPQGLFRGGKSGELEQEEERLSKEWEDSKRWSKMDQLAKELTAEKRLEGQEEEEDNRDSSMKLSFRARAYGFRGPGPQLRRGWRPSSREDSLEAGLPLQVRGYPEEKKEEEGSANRRPEDQELESLSAIEAELEKVAHQLQALRRG
For the molecule B1, the “inhibition of parathyroid hormone secretion” value was “inhibit parathyroid hormone secretion”.
